Results: doi:10.1101/2023.05.02.539157, “Toxic anti-phage defense proteins inhibited by intragenic antitoxin proteins” (bioRxiv, 2023)

Legend:
[1] = biological target: T1, RpnAL* (RpnA_(K240R+E241D+M244L)) (E. coli, UniProt P31667 1-292, K240R | E241D | M244L); assay: SEC; Superdex 200 column; individually purified proteins alone and mixed, and the native co-purified RpnALS complex; peak fractions checked by SDS-PAGE; conditions: both partners purified
T1 construct: source: E. coli, overexpressed as C-terminally tagged intein fusion protein, purified
T1 sequence (looked up): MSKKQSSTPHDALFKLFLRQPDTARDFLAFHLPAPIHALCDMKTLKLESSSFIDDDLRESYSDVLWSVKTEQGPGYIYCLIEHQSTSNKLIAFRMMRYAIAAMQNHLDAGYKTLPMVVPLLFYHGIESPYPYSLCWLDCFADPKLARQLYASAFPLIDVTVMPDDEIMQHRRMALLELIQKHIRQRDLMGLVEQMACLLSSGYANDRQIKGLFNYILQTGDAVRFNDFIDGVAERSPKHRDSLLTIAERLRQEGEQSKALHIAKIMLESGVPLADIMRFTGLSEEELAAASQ

[2] = biological target: the molecule itself; assay: SEC-MALS; multi-angle light scattering coupled with size exclusion chromatography of purified RpnAS and of the purified RpnALS complex
[3] = biological target: T2, RpnAL (full-length RpnA, wild type, in the native RpnALS complex) (E. coli, UniProt P31667 1-292); assay: as above; conditions: both partners purified
T2 construct: source: E. coli, WT rpnA gene in an overexpression vector, C-terminally tagged intein fusion, purified together with RpnAS
T2 sequence (looked up): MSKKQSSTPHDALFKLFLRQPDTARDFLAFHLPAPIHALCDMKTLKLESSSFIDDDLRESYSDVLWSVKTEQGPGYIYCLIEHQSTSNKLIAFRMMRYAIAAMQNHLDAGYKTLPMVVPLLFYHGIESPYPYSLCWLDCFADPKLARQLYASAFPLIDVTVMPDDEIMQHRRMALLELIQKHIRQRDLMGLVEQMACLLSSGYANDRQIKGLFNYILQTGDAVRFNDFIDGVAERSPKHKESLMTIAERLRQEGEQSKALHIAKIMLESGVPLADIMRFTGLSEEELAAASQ

B1: RpnAS (natural protein, E. coli, UniProt P31667 244-292, looked up)
chain: MTIAERLRQEGEQSKALHIAKIMLESGVPLADIMRFTGLSEEELAAASQ
notes: also called RpnS of RpnA; small C-terminal protein of RpnA
[1]
  binding result: binds
[2]
  stoichiometry N: 2
[3]
  stoichiometry N: 1 RpnAS per RpnAL (2:2)
